# B1: G protein-coupled receptor kinase 6 (Homo sapiens), P43250 (parent)
# chain: MELENIVANTVLLKAREGGGGNRKGKSKKWRQMLQFPHISQCEELRLSLERDYHSLCERQPIGRLLFREFCATRPELSRCVAFLDGVAEYEVTPDDKRKACGRQLTQNFLSHTGPDLIPEVPRQLVTNCTQRLEQGPCKDLFQELTRLTHEYLSVAPFADYLDSIYFNRFLQWKWLERQPVTKNTFRQYRVLGKGGFGEVCACQVRATGKMYACKKLEKKRIKKRKGEAMALNEKQILEKVNSRFVVSLAYAYETKDALCLVLTLMNGGDLKFHIYHMGQAGFPEARAVFYAAEICCGLEDLHRERIVYRDLKPENILLDDHGHIRISDLGLAVHVPEGQTIKGRVGTVGYMAPEVVKNERYTFSPDWWALGCLLYEMIAGQSPFQQRKKKIKREEVERLVKEVPEEYSERFSPQARSLCSQLLCKDPAERLGCRGGSAREVKEHPLFKKLNFKRLGAGMLEPPFKPDPQAIYCKDVLDIEQFSTVKGVELEPTDQDFYQKFATGSVPIPWQNEMVETECFQELNVFGLDGSVPPDLDWKGQPPAPPKKGLLQRLFSRQDCCGNCSDSEEELPTRL
# Variants of: B1
# Conditions: with rom1_bovin ROM1, P52205
# Chain of rom1_bovin ROM1, P52205 (P52205 whole entry): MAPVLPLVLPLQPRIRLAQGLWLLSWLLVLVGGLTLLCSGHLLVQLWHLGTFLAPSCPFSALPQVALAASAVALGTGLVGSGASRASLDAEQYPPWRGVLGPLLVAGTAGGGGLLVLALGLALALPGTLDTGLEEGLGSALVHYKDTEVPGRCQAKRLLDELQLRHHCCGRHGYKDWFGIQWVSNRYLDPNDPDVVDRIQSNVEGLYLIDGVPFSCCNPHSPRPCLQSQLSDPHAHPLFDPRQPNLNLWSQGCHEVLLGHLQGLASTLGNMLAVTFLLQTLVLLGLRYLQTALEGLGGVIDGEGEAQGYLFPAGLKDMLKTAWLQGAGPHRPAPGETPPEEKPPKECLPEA
row,Variant,effect of a mutation on the interaction
1,L3A,decreasing interaction

# Variants of: B1
# Conditions: with rom1_bovin ROM1, P52205
# Remark: another data set of the same source
row,Variant,effect of a mutation on the interaction
1,E4A,decreasing interaction

# Variants of: B1
# Conditions: with rom1_bovin ROM1, P52205
# Remark: another data set of the same source
row,Variant,effect of a mutation on the interaction
1,I6A,decreasing interaction

# Variants of: B1
# Conditions: with rom1_bovin ROM1, P52205
# Remark: another data set of the same source
row,Variant,effect of a mutation on the interaction
1,V7A,decreasing interaction

# Variants of: B1
# Conditions: with rom1_bovin ROM1, P52205
# Remark: another data set of the same source
row,Variant,effect of a mutation on the interaction
1,I6E,disrupting interaction
2,V7E,disrupting interaction

# Variants of: B1
# Conditions: with rom1_bovin ROM1, P52205
# Remark: another data set of the same source
row,Variant,effect of a mutation on the interaction
1,N9A,disrupting interaction

# Variants of: B1
# Conditions: with rom1_bovin ROM1, P52205
# Remark: another data set of the same source
row,Variant,effect of a mutation on the interaction
1,L12A,disrupting interaction

# Variants of: B1
# Conditions: with rom1_bovin ROM1, P52205
# Remark: another data set of the same source
row,Variant,effect of a mutation on the interaction
1,L13A,decreasing interaction
